Experimental data taken from article PMC12702776, “New insights into the classification of the RAC1 P29S hotspot mutation in melanoma as an oncogene” (Cancer Gene Therapy, 2025).

Molecular target: RAC1^P29S, purified (human, UniProt P63000 1-192, P29S)
Experiment: stopped-flow fluorimetry; mGppNHp-bound RAC1 with varying concentrations of His-IQGAP1 C794; kon, koff, Kd = koff/kon
Settings: both partners purified

fold higher binding affinity than that of PAK1 for RAC1^P29S: 30 fold
B1: His-IQGAP1 C794 (C-terminal 794 amino acids of IQ motif-containing GTPase-activating protein 1) (domain or fragment)
chain: PPMVVVRKFVHLLDQSDQDFQEELDLMKMREEVITLIRSNQQLENDLNLMDIKIGLLVKNKITLQDVVSHSKKLTKKNKEQLSDMMMINKQKGGLKALSKEKREKLEAYQHLFYLLQTNPTYLAKLIFQMPQNKSTKFMDSVIFTLYNYASNQREEYLLLRLFKTALQEEIKSKVDQIQEIVTGNPTVIKMVVSFNRGARGQNALRQILAPVVKEIMDDKSLNIKTDPVDIYKSWVNQMESQTGEASKLPYDVTPEQALAHEEVKTRLDSSIRNMRAVTDKFLSAIVSSVDKIPYGMRFIAKVLKDSLHEKFPDAGEDELLKIIGNLLYYRYMNPAIVAPDAFDIIDLSAGGQLTTDQRRNLGSIAKMLQHAASNKMFLGDNAHLSIINEYLSQSYQKFRRFFQTACDVPELQDKFNVDEYSDLVTLTKPVIYISIGEIINTHTLLLDHQDAIAPEHNDPIHELLDDLGEVPTIESLIGESSGNLNDPNKEALAKTEVSLTLTNKFDVPGDENAEMDARTILLNTKRLIVDVIRFQPGETLTEILETPATSEQEAEHQRAMQRRAIRDAKTPDKMKKSKSVKEDSNLTLQEKKEKIQTGLKKLTELGTVDPKNKYQELINDIARDIRNQRRYRQRRKAELVKLQQTYAALNSKATFYGEQVDYYKSYIKTCLDNLASKGKVSKKPREMKGKKSKKISLKYTAARLHEKGVLLEIEDLQVNQFKNVIFEISPTEEVGDFEVKAKFMGVQMETFMLHYQDLLQLQYEGVAVMKLFDRAKVNVNLLIFLLNKKFYGK
notes: neither is stated here
